Measured values: paper PMC7281310, “Pharmacokinetic Analysis of Epithelial/Endothelial Cell Barriers in Microfluidic Bilayer Devices with an Air–Liquid Interface” (Micromachines, 2020)

Experiments:
[1] = Permeability in Transwells without cells; format: in vitro ADME; conditions: no cells; 12-well Transwell, polyester membrane, 0.4 µm pores, 1.12 cm^2; static, top to bottom chamber; 2 h; endothelial cell media; C0 = 60, 3, 1, 3 µM for 4-dextran, C-dextran, 70-dextran, insulin; fluorescence plate reader; n = 3
Description: (§1) Commercially-available 12-well Transwells (Corning, Corning, NY, USA), with polyester membranes, were utilized to assess static compound permeability in the absence of flow-induced shear stress. The area of each Transwell membrane was 1.12 cm^2 with 0.4 µm diameter pores and 0.5% porosity. Epithelial cells were seeded in the Transwell top apical compartment at a density of 2 × 10^6 cells/mL. Once the cell monolayer had reached confluency, the 500 µL culture media in the top compartment was replaced with a solution of endothelial cell media mixed with various fluorescently-labeled compounds at a pre-determined initial concentration. The bottom basolateral compartment was filled with 1500 µL fresh endothelial cell culture media, and the Transwell was placed in an incubator for 2 h. Then, liquid samples of 100 µL from both compartments were aliquoted into a 96-well plate. Fluorescent intensities of the collected samples were measured, using a BioTek Synergy 2 Plate Reader (BioTek, Winooski, VT, USA), and converted to molecular concentrations as reported elsewhere.
(§2) Investigation of molecular transport across Transwell membranes is useful in establishing baseline permeability characteristics with no shear stress. […] The molecular concentration at the Transwell bottom chamber CT was then measured after 2 h. […]

HUVEC endothelial cells = assay: Trypan blue cell viability assay, HUVEC; format: cell-based, human; conditions: tested concentration range 10^−3–10^1 µM, 1 h exposure
Description: (§3) In general, higher compound concentration is desired since the emitted light intensity increases with molecular concentration enhancing the signal-to-noise ratio and, thereby, improving the reliability of the measured concentration. However, some compounds could be toxic agents to cell cultures; as the signal intensity increases with increasing compound concentration, cells could be adversely affected resulting in cell death. […] Epithelial and endothelial cells were seeded and cultured in 96-well plates for 48 h. The cell cultures were exposed to the selected compounds at various concentrations for 1 h and then washed using PBS. Next, the wells were immersed in 0.2% Trypan Blue for 10 min, after which the cells were fixed using 4% paraformaldehyde and rinsed with PBS. Using a brightfield microscope, dead cells were counted using uptake of trypan blue as a marker for nonviable cells.

[2] = Turbidity / fibril formation after agitation in jet nebulizer (fluorescent intensity, visual pellet); format: physicochemical
Description: In order to generate an aerosol, using a jet nebulizer, a high-pressure air stream is forced through a liquid solution to form a mixture of tiny liquid droplets suspended in air. […] Visual inspection of the upper jet nebulizer platform provides an indirect evidence for insulin fibril formation. The photographs of the nebulizer platform, shown in Figure 8, were taken following 5 min of the solution agitation.
The intensity of the agitated and un-agitated dextran is approximately the same (Ia/Iu ≅ 1), indicating constant transparency with and without agitation, which is consistent with the lack of a dextran pellet on the nebulizer platform. […] The initially lower intensity of the agitated insulin with its low transparency, which is correlated with the pellet formation on the nebulizer platform, can be due to insulin fibril formation.

some cell types = conditions: 30 min exposure; cited from earlier work
[3] = parameters: method as in PMID 21641324, PMID 18646033; conditions: under conditions similar to the present experiments; cited from earlier work
A549 epithelial cells [4] = assay: Trypan blue cell viability assay, A549; format: cell-based, human; conditions: insulin at 10 µM, 1 h exposure
Description: as §3

A549 epithelial cells [5] = assay: Permeability in Transwells with A549 cell monolayer; format: in vitro ADME, human; conditions: confluent A549 monolayer in apical chamber; 12-well Transwell, polyester membrane, 0.4 µm pores, 1.12 cm^2; static, top to bottom chamber; 2 h; endothelial cell media; C0 = 60, 3, 1, 3 µM for 4-dextran, C-dextran, 70-dextran, insulin; fluorescence plate reader; n = 3
Description: as §1, with “elsewhere. […]” for “elsewhere.”
as §2

[6] = Permeability of agitated vs un-agitated insulin in Transwells without cells; format: in vitro ADME; conditions: agitated 5 min in jet nebulizer, 20 min diffusion time, fluorescence
Description: The permeability values, calculated based on concentration measurements in the Transwell bottom compartments after 20 min diffusion time, are shown in Figure 10. […] It is; therefore, critical to maintain the stability of compounds during aerosol generation process in order to obtain reliable concentration–time plots using microfluidic bilayer devices with an air–liquid interface.

Insulin: Fluorescently tagged (FITC) insulin, 5.8 kDa, used at 3 µM as potential inhaled therapeutic compound
Permeability in Transwells, Pat [1]: 15.8 ×10⁻⁶ cm/s
Cytotoxicity to HUVEC cells (in words) (HUVEC endothelial cells): did not have adverse effect
Time to reach steady-state Ia/Iu ([2]; after 5 min agitation in a jet nebulizer): ≤ 20 min
Pellet (solution turbidity) on nebulizer platform, visual inspection ([2]; following 5 min of solution agitation): visible
Time for pellet to disappear ([2]; following 5 min of solution agitation, visual inspection): within half an hour
Concentration at which some cell types start to exhibit signs of cell death (some cell types): greater than 1 µM
Time of fibril dissociation [3]: < 1 h
A549 epithelial cell viability (A549 epithelial cells [4]): 88%
Permeability in Transwells, Pat (A549 epithelial cells [5]): 5 ×10⁻⁶ cm/s
Permeability of agitated solution compared with un-agitated solution [6]: clearly lower
